B1: AtSPT-ORM1 complex (LCB1, LCB2a, SPTssa, ORM1) (Arabidopsis thaliana) (protein)
chain 1: MITIPYLTAVSTYFSYGLLFAFGQLRDFFRRFIDWWFTSNLQGYAPICLGHEDFYIRRLYHRIQDCFERPISSAPDAWFDVVERYSNDNNKTLKRTTKTSRCLNLGSYNYLGFGSFDEYCTPRVIESLKKFSASTCSSRVDAGTTSVHAELEECVTRFVGKPAAVVFGMGYATNSAIIPVLIGKGGLIISDSLNHSSIVNGARGSGATIRVFQHNTPSHLERVLREQIAEGQPRTHRPWKKIIVVVEGIYSMEGEICHLPEVVAICKKYKAYVYLDEAHSIGAIGKTGKGICELLGVDTADVDVMMGTFTKSFGSCGGYIAGSKELIQYLKHQCPAHLYATSIPTPSAQQIISAIKVILGEDGSNRGAQKLARIRENSNFFRAELQKMGFEVLGDNDSPVMPIMLYNPAKIPAFSRECLRQKVAVVVVGFPATPLLLARARICISASHSREDLIRALKVISKVGDLSGIKYFPAEPKKIEQSKNDIKLD
chain 2: MANLYVKAVPPPDMNRNTEWFMYPGVWTTYMLILFFGWLVVLSVSGCSPGMAWTVVNLAHFVVTYHSFHWMKGTPFADDQGIYNGLTWWEQMDNGQQLTRNRKFLTLVPVVLYLIASHTTDYRHPWLFLNTLAVMVLVVAKFPNMHKVRIFGINGDK
chain 3: MASNLVEMFNAALNWVTMILESPSARVVLFGVPIRGHFFVEGLLGVVIIILLTRKSYKPPKRPLTEQEIDELCDEWVPEPLIPPITEDMKHEPPVLESAAGPHTTVNGKDVVNFASANYLGLIGHEKLLESCTSALEKYGVGSCGPRGFYGTIDVHLDCETRISKFLGTPDSILYSYGLSTMFSTIPCFCKKGDVIVADEGVHWGIQNGLQLSRSTIVYFKHNDMESLRITLEKIMTKYKRSKNLRRYIVAEAVYQNSGQIAPLDEIVKLKEKYRFRVILDESNSFGVLGRSGRGLAEHHSVPIEKIDVVTAAMGHALATEGGFCTGNARIIDYQRLSSSGYVFSASLPPYLASAAITAIDVIDQNPDMLVKLKQNVALLWKGLSDIKGMSLTSNRESPIVFLKLEKSSGSAKDDLLLLEKMADRALKEDSLLVVSSKRSFLDKCRLPVGIKLYVSAGHSESDLLKASESLKRLASELLLKS
notes: full-length codon-optimized cDNAs; N-terminal Flag on SPTssa, other chains untagged; HEK293F, GDN; dimer of 1:1:1:1 protomers; endogenous ceramide copurifies; with Long chain base biosynthesis protein 1; Serine palmitoyltransferase small subunit A
B2: AtSPT complex (LCB1, LCB2a, SPTssa) (Arabidopsis thaliana) (protein)
chain 1: B1 chain 1
chain 2: B1 chain 3
notes: full-length codon-optimized cDNAs; N-terminal Flag on SPTssa, other chains untagged; HEK293F, GDN; without ORM1; with Serine palmitoyltransferase small subunit A

How the values were obtained:
purified protein [1] = substrate: CCCCCCCCCCCCCCCC(=O)SCCNC(=O)CCNC(=O)[C@H](O)C(C)(C)COP(=O)(O)OP(=O)(O)OC[C@H]1O[C@@H](n2cnc3c(N)ncnc32)[C@H](O)[C@@H]1OP(=O)(O)O; test: purified protein; assay type: biochemical, Arabidopsis thaliana; conditions: 100 mM L-serine, 25 μM PLP, pH 7.5, 30 °C, active site in LCB2a/LCB1
purified protein [2] = substrate: N[C@@H](CO)C(=O)O; test: purified protein; conditions: 100 μM palmitoyl-CoA, 25 μM PLP, pH 7.5, 30 °C, active site in LCB2a/LCB1

Protein | K0.5 (purified protein [1]) | Km (purified protein [2])
B1 | 69.05 ± 6.13 µM | 10.44 ± 0.88 mM
B2 | 8.29 ± 0.80 µM | 7.33 ± 0.65 mM

Reference: PMC10058238, “Mechanism of sphingolipid homeostasis revealed by structural analysis of Arabidopsis SPT-ORM1 complex” (Science Advances, 2023)
